Results on 2 substances are retold here after publication PMC3496014.

In assay [1] the target is MBP-PfAtg3 (P. falciparum 3D7) (UniProt C0H519). In words: pull-down.
The target is the same in assay [2]. In words: SPR. A general note: In SPR one partner is held on a chip, and binding of the other changes the refractive index at the surface.
In assay [3] the target is MBP-PfAtg3 W105A (P. falciparum 3D7) (UniProt C0H519). Briefly: pull-down.

On to “His6-PfAtg8 with deletion of residues 68 to 76 (from UniProt Q8IJK2 1-124) (natural protein)”, for which, in assay [1], the reduction of binding against wild type worked out at 80%. One may read the Kd as the free concentration of one partner at which half of the binding sites on the other are occupied at equilibrium, for simple one-to-one binding. A low value points to tighter binding. Take “His6-PfAtg8^CM (cysteine mutant C37I, C119S, C122S) (from UniProt Q8IJK2 1-124) (natural protein)”: in assay [2], the Kd was found to be 326 nM. The decrease of binding against wild type in assay [3] came to 35%.
